From article PMC10397247

How the values were obtained:
4H2134-bA = molecular target: T1, 4H2134-bA; experiment: two-hybrid library CCNG1;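 note: natural log of median RNA to DNA barcode read ratio; higher means stronger binding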
T1 chain: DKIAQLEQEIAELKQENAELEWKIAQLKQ

4H3907-bA = molecular target: T2, 4H3907-bA; experiment: two-hybrid library CCNG1;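 note: natural log of median RNA to DNA barcode read ratio; higher means stronger binding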
T2 chain: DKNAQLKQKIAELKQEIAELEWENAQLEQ

4H1406-bA = molecular target: T3, 4H1406-bA; experiment: two-hybrid library CCNG1;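 note: natural log of median RNA to DNA barcode read ratio; higher means stronger binding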
T3 chain: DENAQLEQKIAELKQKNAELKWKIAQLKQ

4H4038-bA = molecular target: T4, 4H4038-bA; experiment: two-hybrid library CCNG1;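 note: natural log of median RNA to DNA barcode read ratio; higher means stronger binding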
T4 chain: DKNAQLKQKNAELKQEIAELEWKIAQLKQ

4H3592-bA = molecular target: T5, 4H3592-bA; experiment: two-hybrid library CCNG1;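 note: natural log of median RNA to DNA barcode read ratio; higher means stronger binding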
T5 chain: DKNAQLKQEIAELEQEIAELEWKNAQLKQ

4H3601-bA = molecular target: T6, 4H3601-bA; experiment: two-hybrid library CCNG1;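 note: natural log of median RNA to DNA barcode read ratio; higher means stronger binding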
T6 chain: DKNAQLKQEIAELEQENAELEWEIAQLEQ

P7SH = molecular target: T7, P7SH; experiment: two-hybrid library CCNG1
T7 chain: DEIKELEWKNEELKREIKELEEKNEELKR

P6SH = molecular target: T8, P6SH; experiment: two-hybrid library CCNG1
T8 chain: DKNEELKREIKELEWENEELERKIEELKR

P8SH = molecular target: T9, P8SH; experiment: two-hybrid library CCNG1
T9 chain: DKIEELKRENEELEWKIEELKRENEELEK

O15-bH = molecular target: T10, O15-bH; experiment: two-hybrid library CCNG1
T10 chain: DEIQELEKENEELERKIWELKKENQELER

O2-bH = molecular target: T11, O2-bH; experiment: two-hybrid library CCNG1
T11 chain: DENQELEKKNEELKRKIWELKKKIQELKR

O14-bH = molecular target: T12, O14-bH; experiment: two-hybrid library CCNG1
T12 chain: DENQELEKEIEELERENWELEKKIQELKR

O5-bH = molecular target: T13, O5-bH; experiment: two-hybrid library CCNG1
T13 chain: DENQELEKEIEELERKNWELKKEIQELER

O12-bH = molecular target: T14, O12-bH; experiment: two-hybrid library CCNG1
T14 chain: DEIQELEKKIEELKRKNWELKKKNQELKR

O16-bH = molecular target: T15, O16-bH; experiment: two-hybrid library CCNG1
T15 chain: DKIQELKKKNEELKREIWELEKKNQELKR

O8-bH = molecular target: T16, O8-bH; experiment: two-hybrid library CCNG1
T16 chain: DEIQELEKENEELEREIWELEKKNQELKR

O9-bH = molecular target: T17, O9-bH; experiment: two-hybrid library CCNG1
T17 chain: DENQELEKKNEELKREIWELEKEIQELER

O7-bH = molecular target: T18, O7-bH; experiment: two-hybrid library CCNG1
T18 chain: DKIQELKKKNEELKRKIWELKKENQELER

O3-bH = molecular target: T19, O3-bH; experiment: two-hybrid library CCNG1
T19 chain: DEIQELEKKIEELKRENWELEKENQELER

O13-bH = molecular target: T20, O13-bH; experiment: two-hybrid library CCNG1
T20 chain: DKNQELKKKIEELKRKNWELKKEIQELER

O6-bH = molecular target: T21, O6-bH; experiment: two-hybrid library CCNG1
T21 chain: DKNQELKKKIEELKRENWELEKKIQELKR

O4-bH = molecular target: T22, O4-bH; experiment: two-hybrid library CCNG1
T22 chain: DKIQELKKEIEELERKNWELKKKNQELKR

O11-bH = molecular target: T23, O11-bH; experiment: two-hybrid library CCNG1
T23 chain: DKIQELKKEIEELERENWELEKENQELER

4H953-AA = molecular target: T24, 4H953-AA; experiment: two-hybrid library CCmax; settings: mean of both orientations
T24 chain: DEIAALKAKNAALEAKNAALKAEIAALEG

4H967-AA = molecular target: T25, 4H967-AA; experiment: two-hybrid library CCmax; settings: mean of both orientations
T25 chain: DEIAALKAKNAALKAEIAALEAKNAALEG

4H3427-AA = molecular target: T26, 4H3427-AA; experiment: two-hybrid library CCmax; settings: mean of both orientations
T26 chain: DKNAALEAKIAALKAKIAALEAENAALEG

4H687-AA = molecular target: T27, 4H687-AA; experiment: two-hybrid library CCmax; settings: mean of both orientations
T27 chain: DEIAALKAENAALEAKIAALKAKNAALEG

4H3782-AA = molecular target: T28, 4H3782-AA; experiment: two-hybrid library CCmax; settings: mean of both orientations
T28 chain: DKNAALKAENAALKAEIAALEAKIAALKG

4H568-AA = molecular target: T29, 4H568-AA; experiment: two-hybrid library CCmax; settings: mean of both orientations
T29 chain: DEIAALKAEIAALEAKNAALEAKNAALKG

4H797-AA = molecular target: T30, 4H797-AA; experiment: two-hybrid library CCmax; settings: mean of both orientations
T30 chain: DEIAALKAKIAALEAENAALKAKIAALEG

4H717-AA = molecular target: T31, 4H717-AA; experiment: two-hybrid library CCmax; settings: mean of both orientations
T31 chain: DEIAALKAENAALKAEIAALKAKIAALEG

4H3855-AA = molecular target: T32, 4H3855-AA; experiment: two-hybrid library CCmax; settings: mean of both orientations
T32 chain: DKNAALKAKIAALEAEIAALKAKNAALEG

4H4001-AA = molecular target: T33, 4H4001-AA; experiment: two-hybrid library CCmax; settings: mean of both orientations
T33 chain: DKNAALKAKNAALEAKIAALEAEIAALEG

4H2442-AA = molecular target: T34, 4H2442-AA; experiment: two-hybrid library CCmax
T34 chain: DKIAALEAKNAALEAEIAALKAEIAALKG

4H3354-AA = molecular target: T35, 4H3354-AA; experiment: two-hybrid library CCmax; settings: mean of both orientations
T35 chain: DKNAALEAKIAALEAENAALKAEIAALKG

4H3112-AA = molecular target: T36, 4H3112-AA; experiment: two-hybrid library CCmax; settings: mean of both orientations
T36 chain: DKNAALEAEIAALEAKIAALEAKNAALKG

4H918-AA = molecular target: T37, 4H918-AA; experiment: two-hybrid library CCmax; settings: mean of both orientations
T37 chain: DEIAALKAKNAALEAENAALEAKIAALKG

4H883-AA = molecular target: T38, 4H883-AA; experiment: two-hybrid library CCmax; settings: mean of both orientations
T38 chain: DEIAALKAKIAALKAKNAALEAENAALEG

## DENAQLEQKIAELKQKNAELKWKIAQLKQ [4H1406-bA]
4H2134-bA
  interaction score: 1.62
4H3907-bA
  interaction score: 0.571
4H1406-bA
  interaction score: -0.836
4H4038-bA
  interaction score: -0.125
4H3592-bA
  interaction score: 0.233
4H3601-bA
  interaction score: 1.83

## DKNEELKREIKELEWENEELERKIEELKR [P6SH]
P7SH
  interaction score: 0.762
P6SH
  interaction score: 0.574
P8SH
  interaction score: 0.565

## DEIQELEKKIEELKRKNWELKKKNQELKR [O12-bH]
O15-bH
  interaction score: 0.483
O2-bH
  interaction score: -1.26
O14-bH
  interaction score: -1.38
O5-bH
  interaction score: -1.26
O12-bH
  interaction score: 0.775
O16-bH
  interaction score: -0.436
O8-bH
  interaction score: 1.12
O9-bH
  interaction score: 0.102
O7-bH
  interaction score: -0.37
O3-bH
  interaction score: 1.56
O13-bH
  interaction score: 0.332
O6-bH
  interaction score: 0.619
O4-bH
  interaction score: 1.12

## DKIQELKKEIEELERENWELEKENQELER [O11-bH]
O15-bH
  interaction score: -0.515
O2-bH
  interaction score: -1.24
O14-bH
  interaction score: -0.342
O5-bH
  interaction score: -3.76
O12-bH
  interaction score: 1.01
O16-bH
  interaction score: -0.352
O8-bH
  interaction score: -0.273
O9-bH
  interaction score: -1.15
O7-bH
  interaction score: 0.102
O3-bH
  interaction score: 0.233
O13-bH
  interaction score: -0.515
O6-bH
  interaction score: -0.451
O11-bH
  interaction score: -0.129
O4-bH
  interaction score: 1.29

## DKIAALEAKNAALEAEIAALKAEIAALKG [4H2442-AA]
4H953-AA
  interaction score: -1.67
4H967-AA
  interaction score: -2.2
4H3427-AA
  interaction score: -1.52
4H687-AA
  interaction score: -1.85
4H3782-AA
  interaction score: -1.14
4H568-AA
  interaction score: -1.38
4H797-AA
  interaction score: -1.52
4H717-AA
  interaction score: -1.4
4H3855-AA
  interaction score: -1.56
4H4001-AA
  interaction score: -2.06
4H2442-AA
  interaction score: 1.97
4H3354-AA
  interaction score: -1.37
4H3112-AA
  interaction score: -1.4
4H918-AA
  interaction score: -1.29
4H883-AA
  interaction score: -1.82
